Measured values reported in patent US20260258141A1 (BIOCYTOGEN PHARMACEUTICALS BEIJING, published 2026).

Tests used:
[1] = molecular target: human IGF1R (insulin-like growth factor 1 receptor) on cells (human) (UniProt P08069); assay: flow cytometry on CHO-S-hIGF1R cells, antibody 20 µg/mL
[2] = molecular target: T1, human insulin receptor INSR on cells (human, UniProt P06213 28-1382); assay: flow cytometry on CHO-S-hINSR cells, antibody 20 µg/mL
T1 construct: Expressed on CHO-S cells; also called hINSR; CHO-S-hINSR cells
Experimental: INSR (insulin receptor) and IGF1R are both members of the superfamily of receptor tyrosine kinases (RTKs). The binding activity of anti-IGF1R antibodies to human IGF1R, human INSR and monkey IGF1R was verified by flow cytometry. Briefly, CHO-S-hIGF1R cells (expressing human IGF1R (SEQ ID NO: 45), CHO-S-fasIGF1R cells (expressing cynomolgus monkey IGF1R (SEQ ID NO: 46) and CHO-S-hINSR (expressing SEQ ID NO: 47) were plated in a 96-well plate at a density of 2×10⁵ cells/well respectively. Purified anti-IGF1R antibody with a concentration of 20 μg/mL was added to each well and was incubated at 4° C. for 30 minutes. Then, after one wash with PBS, the cells were incubated with the secondary antibody Alexa Fluor® 647 anti-human IgG Fcγ (Jackson ImmunoResearch Laboratories, Inc., Cat #: 109-606-170) at 4° C. for 15 minutes before flow cytometry analysis. Human IgG1 was used as ISO control.

[3] = molecular target: cynomolgus monkey IGF1R on cells (cynomolgus monkey); assay: flow cytometry on CHO-S-fasIGF1R cells, antibody 20 µg/mL
Chain of cynomolgus monkey IGF1R on cells (cynomolgus monkey) (P08069 other isoform, or with tags, fused parts or gaps limits assumed): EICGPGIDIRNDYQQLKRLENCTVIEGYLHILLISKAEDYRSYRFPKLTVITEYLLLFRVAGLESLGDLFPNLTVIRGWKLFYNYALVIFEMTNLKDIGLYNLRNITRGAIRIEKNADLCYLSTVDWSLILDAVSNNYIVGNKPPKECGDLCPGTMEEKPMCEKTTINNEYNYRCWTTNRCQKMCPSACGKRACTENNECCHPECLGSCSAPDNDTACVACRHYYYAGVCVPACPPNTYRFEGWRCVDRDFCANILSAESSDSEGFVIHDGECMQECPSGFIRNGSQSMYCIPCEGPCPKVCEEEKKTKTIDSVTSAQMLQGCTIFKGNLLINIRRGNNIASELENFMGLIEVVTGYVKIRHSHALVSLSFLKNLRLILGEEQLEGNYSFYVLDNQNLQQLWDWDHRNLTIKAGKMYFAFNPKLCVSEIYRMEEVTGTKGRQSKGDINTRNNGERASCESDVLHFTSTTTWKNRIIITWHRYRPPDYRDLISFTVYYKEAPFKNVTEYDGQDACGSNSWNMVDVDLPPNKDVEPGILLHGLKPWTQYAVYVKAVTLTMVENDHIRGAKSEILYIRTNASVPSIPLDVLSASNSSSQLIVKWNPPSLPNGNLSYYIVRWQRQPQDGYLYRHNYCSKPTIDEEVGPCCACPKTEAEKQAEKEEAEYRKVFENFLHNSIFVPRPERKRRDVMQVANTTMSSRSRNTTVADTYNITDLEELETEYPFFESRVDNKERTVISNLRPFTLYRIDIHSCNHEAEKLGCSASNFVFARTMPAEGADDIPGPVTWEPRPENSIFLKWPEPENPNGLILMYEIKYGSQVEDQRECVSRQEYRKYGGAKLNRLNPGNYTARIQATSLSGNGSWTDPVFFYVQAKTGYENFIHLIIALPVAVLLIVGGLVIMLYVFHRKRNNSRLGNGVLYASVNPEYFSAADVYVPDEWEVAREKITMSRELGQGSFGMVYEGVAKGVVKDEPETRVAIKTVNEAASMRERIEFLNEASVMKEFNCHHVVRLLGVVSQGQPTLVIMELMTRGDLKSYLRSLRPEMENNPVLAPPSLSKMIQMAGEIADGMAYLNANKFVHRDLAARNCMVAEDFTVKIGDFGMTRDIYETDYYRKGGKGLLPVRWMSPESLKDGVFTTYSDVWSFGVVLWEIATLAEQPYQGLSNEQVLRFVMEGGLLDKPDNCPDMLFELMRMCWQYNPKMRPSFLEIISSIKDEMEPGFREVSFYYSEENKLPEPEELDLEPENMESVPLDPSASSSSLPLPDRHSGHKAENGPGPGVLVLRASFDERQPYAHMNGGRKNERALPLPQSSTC

T1 sequence (P06213 other isoform, or with tags, fused parts or gaps limits assumed): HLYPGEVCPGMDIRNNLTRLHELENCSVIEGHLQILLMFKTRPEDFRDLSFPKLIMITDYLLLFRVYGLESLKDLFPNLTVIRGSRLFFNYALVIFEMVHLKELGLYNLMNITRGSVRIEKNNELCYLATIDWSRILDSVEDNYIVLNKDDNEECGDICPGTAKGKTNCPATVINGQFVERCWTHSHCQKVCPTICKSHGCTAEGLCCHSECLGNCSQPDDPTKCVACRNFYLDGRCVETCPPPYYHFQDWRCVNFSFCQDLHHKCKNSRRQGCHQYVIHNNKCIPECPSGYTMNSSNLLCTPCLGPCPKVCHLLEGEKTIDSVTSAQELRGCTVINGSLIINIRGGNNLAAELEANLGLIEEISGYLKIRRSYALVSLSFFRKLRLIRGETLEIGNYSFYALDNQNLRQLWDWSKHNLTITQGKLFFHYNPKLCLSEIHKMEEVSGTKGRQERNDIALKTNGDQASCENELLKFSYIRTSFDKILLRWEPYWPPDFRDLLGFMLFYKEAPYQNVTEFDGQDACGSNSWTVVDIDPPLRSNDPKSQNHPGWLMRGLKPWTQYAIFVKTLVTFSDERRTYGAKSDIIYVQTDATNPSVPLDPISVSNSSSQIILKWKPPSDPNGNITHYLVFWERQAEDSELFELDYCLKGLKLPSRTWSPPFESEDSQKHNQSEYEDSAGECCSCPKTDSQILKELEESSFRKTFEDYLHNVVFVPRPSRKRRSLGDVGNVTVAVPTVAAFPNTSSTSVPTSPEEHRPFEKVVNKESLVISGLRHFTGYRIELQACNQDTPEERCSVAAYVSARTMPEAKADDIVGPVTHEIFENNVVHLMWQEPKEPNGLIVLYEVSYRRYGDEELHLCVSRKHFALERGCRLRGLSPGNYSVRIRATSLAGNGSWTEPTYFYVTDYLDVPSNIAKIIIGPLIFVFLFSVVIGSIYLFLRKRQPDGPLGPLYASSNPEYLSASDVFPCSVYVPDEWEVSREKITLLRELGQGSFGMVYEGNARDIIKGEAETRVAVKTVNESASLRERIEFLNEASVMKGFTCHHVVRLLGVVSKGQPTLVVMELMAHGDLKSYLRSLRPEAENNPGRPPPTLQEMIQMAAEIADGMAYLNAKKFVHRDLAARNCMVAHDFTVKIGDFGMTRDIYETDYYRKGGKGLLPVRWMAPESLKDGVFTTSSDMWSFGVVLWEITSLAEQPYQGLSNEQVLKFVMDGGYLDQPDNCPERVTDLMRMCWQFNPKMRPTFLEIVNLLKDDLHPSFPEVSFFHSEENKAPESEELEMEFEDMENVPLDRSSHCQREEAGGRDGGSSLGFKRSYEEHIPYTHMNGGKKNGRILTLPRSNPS
Chain of human IGF1R (insulin-like growth factor 1 receptor) on cells (human) (P08069 31-1367 limits assumed): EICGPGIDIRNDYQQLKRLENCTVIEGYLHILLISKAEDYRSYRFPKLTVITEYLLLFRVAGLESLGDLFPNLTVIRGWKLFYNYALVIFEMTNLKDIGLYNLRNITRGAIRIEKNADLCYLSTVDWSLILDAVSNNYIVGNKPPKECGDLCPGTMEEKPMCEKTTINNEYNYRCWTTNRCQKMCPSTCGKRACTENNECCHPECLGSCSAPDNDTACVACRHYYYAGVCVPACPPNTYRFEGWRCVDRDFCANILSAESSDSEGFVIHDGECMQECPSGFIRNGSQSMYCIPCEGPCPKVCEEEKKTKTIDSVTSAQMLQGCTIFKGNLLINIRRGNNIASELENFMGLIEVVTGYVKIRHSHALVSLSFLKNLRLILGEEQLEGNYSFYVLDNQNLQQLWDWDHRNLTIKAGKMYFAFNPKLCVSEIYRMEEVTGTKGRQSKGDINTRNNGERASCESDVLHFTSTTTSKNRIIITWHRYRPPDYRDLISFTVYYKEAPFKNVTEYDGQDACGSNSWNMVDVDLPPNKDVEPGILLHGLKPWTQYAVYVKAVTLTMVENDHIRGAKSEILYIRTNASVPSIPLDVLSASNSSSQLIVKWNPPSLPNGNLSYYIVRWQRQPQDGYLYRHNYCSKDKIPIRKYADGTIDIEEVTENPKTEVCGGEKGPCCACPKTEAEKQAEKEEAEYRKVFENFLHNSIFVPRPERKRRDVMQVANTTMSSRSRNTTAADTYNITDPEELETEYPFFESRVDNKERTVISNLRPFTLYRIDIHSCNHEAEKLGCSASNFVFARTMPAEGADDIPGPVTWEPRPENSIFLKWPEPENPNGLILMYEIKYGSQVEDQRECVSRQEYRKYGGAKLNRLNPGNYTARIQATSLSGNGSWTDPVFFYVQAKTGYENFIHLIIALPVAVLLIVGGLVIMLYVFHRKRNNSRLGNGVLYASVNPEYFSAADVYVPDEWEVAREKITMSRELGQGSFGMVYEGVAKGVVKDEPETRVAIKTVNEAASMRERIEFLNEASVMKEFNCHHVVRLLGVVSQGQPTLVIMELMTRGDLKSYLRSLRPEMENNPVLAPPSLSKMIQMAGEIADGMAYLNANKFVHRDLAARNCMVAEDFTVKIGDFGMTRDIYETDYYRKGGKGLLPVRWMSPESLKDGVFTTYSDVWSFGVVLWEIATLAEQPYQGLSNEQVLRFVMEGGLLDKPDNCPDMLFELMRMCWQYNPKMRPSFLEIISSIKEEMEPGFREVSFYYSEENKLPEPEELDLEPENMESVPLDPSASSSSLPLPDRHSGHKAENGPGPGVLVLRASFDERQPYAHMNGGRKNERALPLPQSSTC

| Percentage of positive cells [1] [%] | Percentage of positive cells [2] [%] | Percentage of positive cells [3] [%] | Molecule |
| --- | --- | --- | --- |
| 0.7 | 0.4 | 0.3 | Human IgG1 ISO control (antibody) |
|  | 1.5 |  | Teprotumumab analog (antibody, V domains shown, also called positive control) VH: QVELVESGGGVVQPGRSQRLSCAASGFTFSSYGMHWVRQAPGKGLEWVAIIWFDGSSTYYADSVRGRFTISRDNSKNTLYLQMNSLRAEDTAVYFCARELGRRYFDLWGRGTLVSVSS VL: EIVLTQSPATLSLSPGERATLSCRASQSVSSYLAWYQQKPGQAPRLLIYDASKRATGIPARFSGSGSGTDFTLTISSLEPEDFAVYYCQQRSKWPPWTFGQGTKVESKR |
